Measured values reported in article doi:10.1101/2023.06.06.543836.

Target: CXCL12 (chemokine (C-X-C motif) ligand 12) (UniProt P48061)
Experiment: NMR titration

Sequence of CXCL12 (chemokine (C-X-C motif) ligand 12) (P48061 22-89): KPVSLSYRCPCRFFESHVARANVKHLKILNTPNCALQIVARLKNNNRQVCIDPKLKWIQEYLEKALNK

Kd: 200 nM
Substance: Ac-pep (synthetic peptide corresponding to the HMGB1 acidic IDR) (from UniProt P63158 186-214)
